The source of these data is PMC3080406, “Efficient Conversion of Phenylpyruvic Acid to Phenyllactic Acid by Using Whole Cells of Bacillus coagulans SDM” (PLoS ONE, 2011).

What all share (experiment): NADH oxidation assay
What all share (type): biochemical, Heyndrickxia coagulans

Substrate in data set [1]: CC(=O)C(=O)O
To be noted: 0.2 mM NADH, 50 mM Tris-HCl pH 7.0, 50°C, no FDP. The text has this: (§1) NADH oxidation assay on D-nLDH

Substrate in data set [2]: O=C(O)C(=O)Cc1ccccc1
To be noted: 0.2 mM NADH, 50 mM Tris-HCl pH 7.0, 50°C, no FDP.
Text: as §1

Substrate in data set [3]: CC(=O)C(=O)O
The following applies: 0.2 mM NADH, 5 mM FDP (fructose 1,6-bisphosphate), 50 mM Tris-HCl pH 7.0, 50°C. The text has this:
(§2) NADH oxidation assay on L-nLDH

Substrate in data set [4]: O=C(O)C(=O)Cc1ccccc1
To be noted: 0.2 mM NADH, 5 mM FDP (fructose 1,6-bisphosphate), 50 mM Tris-HCl pH 7.0, 50°C.
Text: as §2

B1: D-nLDH (Heyndrickxia coagulans) (protein)
chain: MRKVVAYETRADEFPLFQKFARKFDLDIKYIDDVLTPETAMEAKGAEAVTILGNYPVGSGTFKALRDVGVKYIGLRTAGNNHIDQEAAKAYGIRFSNVAYSPYCVADFATMLILMCVRKAKQILSRVEAQDFSVEGIQGREMRNLTIGIIGAGRIGSIVAKNLSGFGCNLIAHDTVERDELRGILKYVSLDELLEESDVITIHTPLFESTYHMINQERIAKIKDGVCIINCSRGAEVDTYALIAGIEAGKAGAAGIDVLEDEEGIFHYDRRTDILDHRQLAILRSFPNVIVTPHTAFYPNQAVSDMAEMALTSLVSFVETGKSRWEIKS
notes: full-length ldhD in pET-28a, N- and C-terminal His tags kept, expressed in E. coli BL21(DE3), HisTrap purified
With B1, in data set [1], the Km – broadly, the concentration of substrate that gives half-maximal velocity – stood at 2.2 mM; the Vmax (commonly the top rate of the reaction or transport when substrate is in excess) was found to be 33.7 µmol/min/mg; the kcat (as a rule, the number of substrate molecules converted per active site and unit of time at saturation) came to 23.6 s⁻¹; the kcat/Km – broadly, the turnover number divided by the Michaelis constant – is 11000 M⁻¹ s⁻¹. Moreover, in data set [2], the Km was 4.4 mM, the Vmax was determined as 23.5 µmol/min/mg, the kcat is 16.5 s⁻¹ and the kcat/Km worked out at 3900 M⁻¹ s⁻¹.

B2: L-nLDH (Heyndrickxia coagulans) (protein)
chain: MKKVNRIAVVGTGAVGTSYCYAMINQGVAEELVLIDINEAKAEGEAMDLNHGLPFAPTPTRVWKGDYSDCGTADLVVITAGSPQKPGETRLDLVSKNAKIFKGMIKSIMDSGFNGIFLVASNPVDILTYVTWKESGLPKEHVIGSGTVLDSARLRNSLSAQFGIDPRNVHAAIIGEHGDTELPVWSHTNIGYDTIESYLQKGIIDEKTLDDIFVNTRDAAYHIIERKGATFYGIGMSLTRITRAILNNENSVLTVSAFLEGQYGNSDVYVGVPAIINRQGIREVVEIKLNEKEQEQFNHSVKVLKETMAPVL
notes: full-length ldhL in pET-28a, N- and C-terminal His tags kept, expressed in E. coli BL21(DE3), HisTrap purified
On to B2, for which, in data set [3], the Km worked out at 2.6 mM, the Vmax amounted to 1800 µmol/min/mg, the kcat came to 1170 s⁻¹ and the kcat/Km was found to be 450000 M⁻¹ s⁻¹. Also, in data set [4], the Km is listed as 4.3 mM, the Vmax was 72.6 µmol/min/mg, the turnover number (kcat) came out at 47.2 s⁻¹ and the kcat/Km came out at 11000 M⁻¹ s⁻¹.
